The text below walks through data of US20180037644A1 (Pfizer, published 2018).

Where a chain is given by its changes, count along the chain named. Where two headings read alike, the source gives them in different places.

Experiment [1] deals with T1, human IL-33 (mm2) (human, UniProt O95760 112-270).
T1 chain: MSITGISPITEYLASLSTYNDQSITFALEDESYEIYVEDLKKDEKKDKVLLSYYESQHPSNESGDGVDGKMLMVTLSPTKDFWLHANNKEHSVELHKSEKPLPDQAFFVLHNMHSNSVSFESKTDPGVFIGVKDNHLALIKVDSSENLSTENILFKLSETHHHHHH
Put plainly: cell-based or functional assay.

Experiment [2] concerns the target T2, human IL-33 WT (R&D) (human, UniProt O95760 112-270).
T2 sequence: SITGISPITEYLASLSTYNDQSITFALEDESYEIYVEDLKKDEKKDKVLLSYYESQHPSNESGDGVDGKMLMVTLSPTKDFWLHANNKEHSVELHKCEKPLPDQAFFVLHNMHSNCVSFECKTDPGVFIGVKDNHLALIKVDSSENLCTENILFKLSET
Nature of the experiment: cell-based or functional assay.

In experiment [3] the target is T3, cynomolgus monkey IL-33 (cys mut) (cynomolgus monkey).
T3 chain: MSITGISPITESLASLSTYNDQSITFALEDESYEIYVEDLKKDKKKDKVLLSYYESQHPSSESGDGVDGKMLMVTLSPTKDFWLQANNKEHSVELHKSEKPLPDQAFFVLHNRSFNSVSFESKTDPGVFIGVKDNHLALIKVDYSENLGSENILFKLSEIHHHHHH
Nature of the experiment: cell-based or functional assay.

For experiment [4], the target named is T4, native human IL-33 from human lung fibroblast (HFL-1) lysate (human, UniProt O95760 1-270, limits assumed).
T4 sequence (looked up): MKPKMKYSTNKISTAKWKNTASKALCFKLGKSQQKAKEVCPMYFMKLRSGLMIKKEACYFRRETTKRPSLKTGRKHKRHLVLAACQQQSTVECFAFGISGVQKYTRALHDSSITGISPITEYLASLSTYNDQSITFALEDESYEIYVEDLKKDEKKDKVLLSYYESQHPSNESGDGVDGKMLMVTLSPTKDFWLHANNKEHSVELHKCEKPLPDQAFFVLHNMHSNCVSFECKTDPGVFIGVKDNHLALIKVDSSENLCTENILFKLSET
Put plainly: cell-based or functional assay.

Experiment [5] addresses T1, human IL-33 (mm2). Nature of the experiment: SPR, IgG captured by anti-human Fc, IL-33 in solution. As to the method:
(§1) Binding to human and cynomolgus monkey IL-33 was measured by surface plasmon resonance using a BIAcore T200 instrument. An anti-human Fc antibody was immobilized on a CM5 chip, and anti-IL-33 antibodies were captured.

In experiment [6] the target is T3, cynomolgus monkey IL-33 (cys mut). Described as above. As to the method:
as §1

The target in experiment [7] is T1, human IL-33 (mm2). Put plainly: cell-based or functional assay.
The target of experiment [8] is T3, cynomolgus monkey IL-33 (cys mut). Nature of the experiment: cell-based or functional assay.
Experiment [9] addresses T1, human IL-33 (mm2). Put plainly: cell-based or functional assay.
In experiment [10] the target is T1, human IL-33 (mm2). Nature of the experiment: cell-based or functional assay.

B1: IL33-158-152 (antibody, human IgG1, kappa)
heavy: EVQLVESGGGLVQPGGSLRLSCAASGFTFSSYWMYWVRQAPGKGLEWVAAITPNAGEDYYPESVKGRFTISRDNAKNSLYLQMNSLRAEDTAVYYCARGHYYYTSYSLGYWGQGTLVTVSSASTKGPSVFPLAPSSKSTSGGTAALGCLVKDYFPEPVTVSWNSGALTSGVHTFPAVLQSSGLYSLSSVVTVPSSSLGTQTYICNVNHKPSNTKVDKKVEPKSCDKTHTCPPCPAPEAAGAPSVFLFPPKPKDTLMISRTPEVTCVVVDVSHEDPEVKFNWYVDGVEVHNAKTKPREEQYNSTYRVVSVLTVLHQDWLNGKEYKCKVSNKALPAPIEKTISKAKGQPREPQVYTLPPSREEMTKNQVSLTCLVKGFYPSDIAVEWESNGQPENNYKTTPPVLDSDGSFFLYSKLTVDKSRWQQGNVFSCSVMHEALHNHYTQKSLSLSPG
light: DIQMTQSPSSLSASVGDRVTITCKASQNINKHLDWYQQKPGKAPKLLIYFTNNLQTGVPSRFSGSGSGTDFTLTISSLQPEDFATYYCFQYNQGWTFGGGTKVEIKRTVAAPSVFIFPPSDEQLKSGTASVVCLLNNFYPREAKVQWKVDNALQSGNSQESVTEQDSKDSTYSLSSTLTLSKADYEKHKVYACEVTHQGLSSPVTKSFNRGEC
Turning to B1, the “IC50, HEK293 ST2 NFkB” value in experiment [1] is 0.095 nM; in [2], 0.62 nM.

B2: IL33-167-153 (antibody, human IgG1, kappa)
heavy: B1 heavy with A50S, E62D
light: B1 light with Q93N
As to B2, the “IC50, HEK293 ST2 NFkB” value in [1] came to 0.129 nM; in experiment [2], 0.749 nM.

B3: 9B3 chimera (antibody, human IgG1, kappa)
heavy: EVQLVETGGGLVQPGRSLKLSCVASGFTFSNYWMYWIRQAPGMGLEWVSSINNDGGNTYYLDSVKGRFTISRNNAENTVYLQMNSLRSEDTATYYCAKGHYSYSSYSFSYWGQGTLVTVSSASTKGPSVFPLAPSSKSTSGGTAALGCLVKDYFPEPVTVSWNSGALTSGVHTFPAVLQSSGLYSLSSVVTVPSSSLGTQTYICNVNHKPSNTKVDKKVEPKSCDKTHTCPPCPAPEAAGAPSVFLFPPKPKDTLMISRTPEVTCVVVDVSHEDPEVKFNWYVDGVEVHNAKTKPREEQYNSTYRVVSVLTVLHQDWLNGKEYKCKVSNKALPAPIEKTISKAKGQPREPQVYTLPPSREEMTKNQVSLTCLVKGFYPSDIAVEWESNGQPENNYKTTPPVLDSDGSFFLYSKLTVDKSRWQQGNVFSCSVMHEALHNHYTQKSLSLSPGK
light: DIQMTQSPSVLSASVGDRVTLSCKASHNINKHLDWCQQKVGEAPKLLIYFTNNLQTGIPSRFSGSGSGTDYTLTISSLQPEDVATYFCFQYNSGWTFGGGTKLELKRTVAAPSVFIFPPSDEQLKSGTASVVCLLNNFYPREAKVQWKVDNALQSGNSQESVTEQDSKDSTYSLSSTLTLSKADYEKHKVYACEVTHQGLSSPVTKSFNRGEC
notes: also called chimeric 9B3
By % inhibition is commonly meant the change of the read-out against control, counted positive when it falls. One may read the Kd as the constant that tells how readily two partners part at equilibrium. Take B3: the “% inhibition at 20 nM, HEK293 ST2 NFkB” value in experiment [3] stood at 35%. In addition, in experiment [4], the “% inhibition 0.1 nM Ab, HEK293 ST2 NFkB” value came out at 52.5%; the “% inhibition 1 nM Ab, HEK293 ST2 NFkB” value was found to be 96%; the “% inhibition 10 nM Ab, HEK293 ST2 NFkB” value amounted to 111%. Also, in experiment [5], binding was characterised by a dissociation constant (Kd) of 0.457 nM. This molecule registered a Kd in experiment [6] of 0.836 nM.

B4: 30A1 chimera/hu J (antibody, human IgG1, kappa)
heavy: QVNLLQSGATLVKPGASMKMSCKASGYSFTDYWVSWVKQSHGKSLEWIGEIYPNSGANNFNKEFKDKATLTVDKSTSTAYMELTRLTSEDSAVYYCTRGPYYYSSQIIFAYWGQGTLVTVSSASTKGPSVFPLAPSSKSTSGGTAALGCLVKDYFPEPVTVSWNSGALTSGVHTFPAVLQSSGLYSLSSVVTVPSSSLGTQTYICNVNHKPSNTKVDKKVEPKSCDKTHTCPPCPAPEAAGAPSVFLFPPKPKDTLMISRTPEVTCVVVDVSHEDPEVKFNWYVDGVEVHNAKTKPREEQYNSTYRVVSVLTVLHQDWLNGKEYKCKVSNKALPAPIEKTISKAKGQPREPQVYTLPPSREEMTKNQVSLTCLVKGFYPSDIAVEWESNGQPENNYKTTPPVLDSDGSFFLYSKLTVDKSRWQQGNVFSCSVMHEALHNHYTQKSLSLSPGK
light: IIVMTQSPKSMSISVGDRVTMNCKASQNVGNNIAWYRQKPGQSPELLIYYASNRYTGVPDRFTGGGYGTDFTLTINSVQAEDAAFYYCQRIYNSPPTFGGGTKVEIKRTVAAPSVFIFPPSDEQLKSGTASVVCLLNNFYPREAKVQWKVDNALQSGNSQESVTEQDSKDSTYSLSSTLTLSKADYEKHKVYACEVTHQGLSSPVTKSFNRGEC
notes: also called 30A1 hu Jseg
As for B4, in [4], the “% inhibition 0.1 nM Ab, HEK293 ST2 NFkB” value was determined as 63.8%; the “% inhibition 1 nM Ab, HEK293 ST2 NFkB” value was determined as 98.5%; the “% inhibition 10 nM Ab, HEK293 ST2 NFkB” value came out at 107%. The molecule further gave an equilibrium dissociation constant (Kd) in [5] of 0.54 nM. This molecule registered a Kd in experiment [6] of 0.197 nM.

B5: IL33-11 (antibody, human IgG1, kappa, V domains shown)
VH: EVQLVESGGGLVQPGGSLRLSCAASGFTFSNYWMYWVRQAPGKGLEWVASITPNGGNTYYPDSVKGRFTISRDNAKNSLYLQMNSLRAEDTAVYYCARGHYYYTSYSLGYWGQGTLVTVSS
VL: DIQMTQSPSSLSASVGDRVTITCKASQNINKHLDWYQQKPGKAPKLLIYFTNNLQTGVPSRFSGSGSGTDFTLTISSLQPEDFATYYCFQYNNGWTFGGGTKVEIKR
Consider B5, for which the “IC50, HEK293 ST2 NFkB” value in experiment [7] turned out to be 0.09 nM; in experiment [8] it was 0.204 nM.

B6: IL33-13 (antibody, human IgG1, kappa, V domains shown)
VH: B5 VH with N31S, Y102S, T104S, L108F, G109S
VL: B5 VL
For B6, the “IC50, HEK293 ST2 NFkB” value in [7] came out at 0.22 nM; in experiment [8], 7.65 nM.

B7: 9B3 CDR graft (antibody, human IgG1, kappa, V domains shown)
VH: B5 VH with T52N, P53N, N54D, P61L, Y102S, T104S, L108F, G109S
VL: B5 VL with Q27H, N93S
For the molecule B7, the “IC50, HEK293 ST2 NFkB” value in experiment [9] came out at 0.52 nM.

B8: 14D8 chimera/hu J (antibody, human IgG1, kappa, V domains shown)
VH: EVQLVDSGGDQVQPGRSLKLSCVASGFIFKNYWMTWIRQVPGKGLEWIASITNSGGNTYYPDSVKGRFTISRDNAKDTLYLQMNSLRSEDTATYYCARDRRYNSGSPFAYWGQGTLVTVSS
VL: DIQLTQSPSTLPASLGERVTISCRTSQSINNNLCWYQQKPDGTVKRLIYSTSTLESGVPSRFSGSGSGTDYSLSISSLESQDFAMYYCLQYATYPWTFGQGTKVEIKR
notes: also called 14D8 huJseg
Consider B8, for which the “IC50, HEK293 ST2 NFkB” value in [10] worked out at 2.03 nM. Further, the “% inhibition at 20 nM, HEK293 ST2 NFkB” value in [3] came to 11%. In addition, in [4], the “% inhibition 0.1 nM Ab, HEK293 ST2 NFkB” value was found to be 61.1%; the “% inhibition 1 nM Ab, HEK293 ST2 NFkB” value is 99.6%; the “% inhibition 10 nM Ab, HEK293 ST2 NFkB” value was found to be 107%. In experiment [5], this molecule gave a Kd of 0.394 nM. In experiment [6], the binding result is listed as “no binding (tested: 125 nM)”.

B9: 12F9 chimera (antibody, human IgG1, kappa, V domains shown)
VH: B8 VH with D6E, Q11L, A24T, I48V, S54T, N57A, A75S, K76E, D77N
VL: DIQLTQSPSTLAASLGERVTISCRASQSISNSLIWFQQKPDGTIKRLIYSSSTLESGVPSRFSGSGSGTDYSLSISSLESEDFAMYYCLQYATYPWTFGGGTKLELRR
notes: also called chimeric 12F9
Turning to B9, the “IC50, HEK293 ST2 NFkB” value in experiment [10] was determined as 2.71 nM. For the same molecule, the “% inhibition at 20 nM, HEK293 ST2 NFkB” value in experiment [3] was determined as 3.6%. In addition, in experiment [4], the “% inhibition 0.1 nM Ab, HEK293 ST2 NFkB” value worked out at 44.3%; the “% inhibition 1 nM Ab, HEK293 ST2 NFkB” value was 82.6%; the “% inhibition 10 nM Ab, HEK293 ST2 NFkB” value amounted to 104%. For the same molecule, in experiment [5], binding was characterised by a dissociation constant (Kd) of 0.408 nM. In [6], the binding result is on record as “no binding (tested: 125 nM)”.

B10: 30B11 chimera/hu J (antibody, human IgG1, kappa, V domains shown)
VH: QVKLLQSGAALVKPGASVKMSCATSGFSFTDYWVSWVKQSHGKGLEWIGEIYPNSGADNFNENFKGKATLTVDKSTSTAYMELSRLTSEDSAIYYCTRGPYYYSTQIIFAYWGQGTLVTVSS
VL: NIVMTQSPKSMSISVGDRVTMNCKASQNVGNNLAWYQQKPGQSPKLLIYYASNRYTGVPDRFTGGGYGTDFTLTINSVQAEDAAFYYCQRIYNSPPTFGGGTKVEIKR
notes: also called 30B11 hu Jseg
With B10, in [10], the “IC50, HEK293 ST2 NFkB” value is 0.028 nM. In addition, the “IC50, HEK293 ST2 NFkB” value in experiment [3] turned out to be 0.11 nM. Further, in experiment [4], the “% inhibition 0.1 nM Ab, HEK293 ST2 NFkB” value is 102%; the “% inhibition 1 nM Ab, HEK293 ST2 NFkB” value turned out to be 109%; the “% inhibition 10 nM Ab, HEK293 ST2 NFkB” value turned out to be 110%. This molecule also gave a Kd in [5] of 0.367 nM. In experiment [6], this molecule returned a Kd of 0.148 nM.
